From patent publication US20120039908A1

Target: T1, S100b protein (Cat. No. 559290, Calbiochem)
T1 sequence (P04271 2-92, species assumed, looked up): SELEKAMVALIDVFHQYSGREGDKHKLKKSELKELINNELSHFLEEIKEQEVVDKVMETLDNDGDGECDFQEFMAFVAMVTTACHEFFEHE
Assay: ELISA, S100b coated on plate; reference baseline bioreactor R39

RAGE-Fc fusion protein from bioreactor R66 (CD OptiCHO lipid-free, 2-deoxy-D-glucose 1 g/L at day 9), Day 12, sequence (chain): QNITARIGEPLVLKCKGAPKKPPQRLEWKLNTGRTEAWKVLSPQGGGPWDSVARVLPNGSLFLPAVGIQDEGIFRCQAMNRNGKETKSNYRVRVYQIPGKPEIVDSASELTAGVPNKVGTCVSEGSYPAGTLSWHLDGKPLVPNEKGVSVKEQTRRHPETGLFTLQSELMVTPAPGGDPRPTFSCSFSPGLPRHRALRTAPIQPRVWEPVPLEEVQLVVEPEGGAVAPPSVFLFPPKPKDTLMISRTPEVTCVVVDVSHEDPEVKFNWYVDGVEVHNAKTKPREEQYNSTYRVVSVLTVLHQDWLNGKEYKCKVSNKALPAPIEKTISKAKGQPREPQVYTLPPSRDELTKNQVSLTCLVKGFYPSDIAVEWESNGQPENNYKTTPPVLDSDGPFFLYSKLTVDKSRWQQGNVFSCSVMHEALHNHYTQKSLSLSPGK
RAGE-Fc fusion protein from bioreactor R79 (Ex Cell 325 PF CHO, 2-deoxy-D-glucose 1 g/L at day 7; 9), Day 12, sequence (chain): as above
RAGE-Fc fusion protein from bioreactor R80 (CD CHO, 2-deoxy-D-glucose 1 g/L at day 7; 9), Day 14, sequence (chain): as above
RAGE-Fc fusion protein from bioreactor R66 (CD OptiCHO lipid-free, 2-deoxy-D-glucose 1 g/L at day 9), Day 14, sequence (chain): as above
RAGE-Fc fusion protein from bioreactor R39 (control, no 2-deoxy-D-glucose), Day 12, sequence (chain): as above
RAGE-Fc fusion protein from bioreactor R80 (CD CHO, 2-deoxy-D-glucose 1 g/L at day 7; 9), Day 12, sequence (chain): as above
RAGE-Fc fusion protein from bioreactor R79 (Ex Cell 325 PF CHO, 2-deoxy-D-glucose 1 g/L at day 7; 9), Day 13, sequence (chain): as above
RAGE-Fc fusion protein from bioreactor R53 (2-deoxy-D-glucose 1 g/L at day 9; 11), Day 12, sequence (chain): as above
RAGE-Fc fusion protein from bioreactor R53 (2-deoxy-D-glucose 1 g/L at day 9; 11), Day 10, sequence (chain): as above

Row | Substance | Relative binding compared to control [%] | fold increase in S100b binding activity compared to baseline bioreactor R39 [fold] | fold S100b binding activity compared to control bioreactor R39 [fold]
1 | RAGE-Fc fusion protein from bioreactor R39 (control, no 2-deoxy-D-glucose), Day 12 | 100 | – | –
2 | RAGE-Fc fusion protein from bioreactor R53 (2-deoxy-D-glucose 1 g/L at day 9; 11), Day 10 | 296 | – | –
3 | RAGE-Fc fusion protein from bioreactor R53 (2-deoxy-D-glucose 1 g/L at day 9; 11), Day 12 | 1520 | – | –
4 | RAGE-Fc fusion protein from bioreactor R66 (CD OptiCHO lipid-free, 2-deoxy-D-glucose 1 g/L at day 9), Day 12 | 3250 | 32 | –
5 | RAGE-Fc fusion protein from bioreactor R66 (CD OptiCHO lipid-free, 2-deoxy-D-glucose 1 g/L at day 9), Day 14 | 3520 | – | –
6 | RAGE-Fc fusion protein from bioreactor R79 (Ex Cell 325 PF CHO, 2-deoxy-D-glucose 1 g/L at day 7; 9), Day 12 | 527 | 5 | –
7 | RAGE-Fc fusion protein from bioreactor R79 (Ex Cell 325 PF CHO, 2-deoxy-D-glucose 1 g/L at day 7; 9), Day 13 | 2960 | – | –
8 | RAGE-Fc fusion protein from bioreactor R80 (CD CHO, 2-deoxy-D-glucose 1 g/L at day 7; 9), Day 12 | 1630 | – | –
9 | RAGE-Fc fusion protein from bioreactor R80 (CD CHO, 2-deoxy-D-glucose 1 g/L at day 7; 9), Day 14 | 8080 | – | 80
